Data from patent US20160024487.

Key:
[1] = target: T1, Lys(Dnp)-ATNATFHPRIVGG-Lys(Abz)
T1 chain: KATNATFHPRIVGGK

[2] = target: T2, Lys(Dnp)-ATNATFTPRIVGG-Lys(Abz)
T2 chain: KATNATFTPRIVGGK

[3] = target: T3, Lys(Dnp)-ATNATFWPRIVGG-Lys(Abz)
T3 chain: KATNATFWPRIVGGK

[4] = target: T4, Lys(Dnp)-ATNATLSPRIVGG-Lys(Abz)
T4 chain: KATNATLSPRIVGGK

[5] = target: T5, Lys(Dnp)-ATNATLTPRIVGG-Lys(Abz)
T5 chain: KATNATLTPRIVGGK

[6] = target: T6, Lys(Dnp)-ATNATLVPRIVGG-Lys(Abz)
T6 chain: KATNATLVPRIVGGK

[7] = target: T7, Lys(Dnp)-ATNATMYPRIVGG-Lys(Abz)
T7 chain: KATNATMYPRIVGGK

[8] = target: T8, Lys(Dnp)-ATNATVIPRIVGG-Lys(Abz)
T8 chain: KATNATVIPRIVGGK

[9] = target: T9, Lys(Dnp)-ATNATVKPRIVGG-Lys(Abz)
T9 chain: KATNATVKPRIVGGK

[10] = target: T10, Lys(Dnp)-ATNATVTPRIVGG-Lys(Abz)
T10 chain: KATNATVTPRIVGGK

[11] = target: T11, Lys(Dnp)-ATNATVWPRIVGG-Lys(Abz)
T11 chain: KATNATVWPRIVGGK

[12] = target: T12, Lys(Dnp)-ATNATWRPRIVGG-Lys(Abz)
T12 chain: KATNATWRPRIVGGK

[13] = target: T13, Lys(Dnp)-ATNATWSPRIVGG-Lys(Abz)
T13 chain: KATNATWSPRIVGGK

[14] = target: T14, Lys(Dnp)-ATNATWTPRIVGG-Lys(Abz)
T14 chain: KATNATWTPRIVGGK

[15] = target: T15, Lys(Dnp)-ATNATYTPRIVGG-Lys(Abz)
T15 chain: KATNATYTPRIVGGK

[16] = target: T16, Lys(Dnp)-ATNATAHPRIVGG-Lys(Abz)
T16 chain: KATNATAHPRIVGGK

[17] = target: T17, Lys(Dnp)-ATNATAQPRIVGG-Lys(Abz)
T17 chain: KATNATAQPRIVGGK

[18] = target: T18, Lys(Dnp)-ATNATDMPRIVGG-Lys(Abz)
T18 chain: KATNATDMPRIVGGK

[19] = target: T19, Lys(Dnp)-ATNATEYPRIVGG-Lys(Abz)
T19 chain: KATNATEYPRIVGGK

[20] = target: T20, Lys(Dnp)-ATNATFNPRIVGG-Lys(Abz)
T20 chain: KATNATFNPRIVGGK

[21] = target: T21, Lys(Dnp)-ATNATFPPRIVGG-Lys(Abz)
T21 chain: KATNATFPPRIVGGK

[22] = target: T22, Lys(Dnp)-ATNATILPRIVGG-Lys(Abz)
T22 chain: KATNATILPRIVGGK

[23] = target: T23, Lys(Dnp)-ATNATKIPRIVGG-Lys(Abz)
T23 chain: KATNATKIPRIVGGK

[24] = target: T24, Lys(Dnp)-ATNATKKPRIVGG-Lys(Abz)
T24 chain: KATNATKKPRIVGGK

[25] = target: T25, Lys(Dnp)-ATNATKLPRIVGG-Lys(Abz)
T25 chain: KATNATKLPRIVGGK

[26] = target: T26, Lys(Dnp)-ATNATKNPRIVGG-Lys(Abz)
T26 chain: KATNATKNPRIVGGK

[27] = target: T27, Lys(Dnp)-ATNATKSPRIVGG-Lys(Abz)
T27 chain: KATNATKSPRIVGGK

[28] = target: T28, Lys(Dnp)-ATNATKWPRIVGG-Lys(Abz)
T28 chain: KATNATKWPRIVGGK

[29] = target: T29, Lys(Dnp)-ATNATLNPRIVGG-Lys(Abz)
T29 chain: KATNATLNPRIVGGK

[30] = target: T30, Lys(Dnp)-ATNATMDPRIVGG-Lys(Abz)
T30 chain: KATNATMDPRIVGGK

[31] = target: T31, Lys(Dnp)-ATNATMNPRIVGG-Lys(Abz)
T31 chain: KATNATMNPRIVGGK

[32] = target: T32, Lys(Dnp)-ATNATMSPRIVGG-Lys(Abz)
T32 chain: KATNATMSPRIVGGK

[33] = target: T33, Lys(Dnp)-ATNATNIPRIVGG-Lys(Abz)
T33 chain: KATNATNIPRIVGGK

[34] = target: T34, Lys(Dnp)-ATNATRAPRIVGG-Lys(Abz)
T34 chain: KATNATRAPRIVGGK

[35] = target: T35, Lys(Dnp)-ATNATSNPRIVGG-Lys(Abz)
T35 chain: KATNATSNPRIVGGK

[36] = target: T36, Lys(Dnp)-ATNATTMPRIVGG-Lys(Abz)
T36 chain: KATNATTMPRIVGGK

[37] = target: T37, Lys(Dnp)-ATNATTRPRIVGG-Lys(Abz)
T37 chain: KATNATTRPRIVGGK

[38] = target: T38, Lys(Dnp)-ATNATWNPRIVGG-Lys(Abz)
T38 chain: KATNATWNPRIVGGK

[39] = target: T39, Lys(Dnp)-ATNATYAPRIVGG-Lys(Abz)
T39 chain: KATNATYAPRIVGGK

[40] = target: T40, Lys(Dnp)-ATNATYGPRIVGG-Lys(Abz)
T40 chain: KATNATYGPRIVGGK

[41] = target: T41, Lys(Dnp)-ATNATYNPRIVGG-Lys(Abz)
T41 chain: KATNATYNPRIVGGK

B1: Human plasma purified Factor Xa (protein)
chain 1: ANSFLEEMKKGHLERECMEETCSYEEAREVFEDSDKTNEFWNKYKDGDQCETSPCQNQGKCKDGLGEYTCTCLEGFEGKNCELFTRKLCSLDNGDCDQFCHEEQNSVVCSCARGYTLADNGKACIPTGPYPCGKQTLER
chain 2: IVGGQECKDGECPWQALLINEENEGFCGGTILSEFYILTAAHCLYQAKRFKVRVGDRNTEQEEGGEAVHEVEVVIKHNRFTKETYDFDIAVLRLKTPITFRMNVAPACLPERDWAESTLMTQKTGIVSGFGRTHEKGRQSTRLKMLEVPYVDRNSCKLSSSFIITQNMFCAGYDTKQEDACQGDSGGPHVTRFKDTYFVTGIVSWGEGCARKGKYGIYTKVTAFLKWIDRSMKTRGLPKAKSHAPEVITSSPLK
- FXa kcat/KM [1]: 150 M⁻¹ s⁻¹
- FXa kcat/KM [2]: 49 M⁻¹ s⁻¹
- FXa kcat/KM [3]: 370 M⁻¹ s⁻¹
- FXa kcat/KM [4]: 690 M⁻¹ s⁻¹
- FXa kcat/KM [5]: 540 M⁻¹ s⁻¹
- FXa kcat/KM [6]: 360 M⁻¹ s⁻¹
- FXa kcat/KM [7]: 110 M⁻¹ s⁻¹
- FXa kcat/KM [8]: 120 M⁻¹ s⁻¹
- FXa kcat/KM [9]: 38 M⁻¹ s⁻¹
- FXa kcat/KM [10]: 68 M⁻¹ s⁻¹
- FXa kcat/KM [11]: 190 M⁻¹ s⁻¹
- FXa kcat/KM [12]: 800 M⁻¹ s⁻¹
- FXa kcat/KM [13]: 52 M⁻¹ s⁻¹
- FXa kcat/KM [14]: 46 M⁻¹ s⁻¹
- FXa kcat/KM [15]: 29 M⁻¹ s⁻¹

B2: Human plasma purified Factor Xa (Molecular Innovations, Inc) (protein)
chain 1: ANSFLEEMKKGHLERECMEETCSYEEAREVFEDSDKTNEFWNKYKDGDQCETSPCQNQGKCKDGLGEYTCTCLEGFEGKNCELFTRKLCSLDNGDCDQFCHEEQNSVVCSCARGYTLADNGKACIPTGPYPCGKQTLER
chain 2: IVGGQECKDGECPWQALLINEENEGFCGGTILSEFYILTAAHCLYQAKRFKVRVGDRNTEQEEGGEAVHEVEVVIKHNRFTKETYDFDIAVLRLKTPITFRMNVAPACLPERDWAESTLMTQKTGIVSGFGRTHEKGRQSTRLKMLEVPYVDRNSCKLSSSFIITQNMFCAGYDTKQEDACQGDSGGPHVTRFKDTYFVTGIVSWGEGCARKGKYGIYTKVTAFLKWIDRSMKTRGLPKAKSHAPEVITSSPLK
- FXa kcat/KM [16]: 140 M⁻¹ s⁻¹
- FXa kcat/KM [17]: 460 M⁻¹ s⁻¹
- FXa kcat/KM [18]: 11 M⁻¹ s⁻¹
- FXa kcat/KM [19]: 15 M⁻¹ s⁻¹
- FXa kcat/KM [20]: 200 M⁻¹ s⁻¹
- FXa kcat/KM [21]: 6.2 M⁻¹ s⁻¹
- FXa kcat/KM [22]: 700 M⁻¹ s⁻¹
- FXa kcat/KM [23]: 62 M⁻¹ s⁻¹
- FXa kcat/KM [24]: 25 M⁻¹ s⁻¹
- FXa kcat/KM [25]: 89 M⁻¹ s⁻¹
- FXa kcat/KM [26]: 64 M⁻¹ s⁻¹
- FXa kcat/KM [27]: 84 M⁻¹ s⁻¹
- FXa kcat/KM [28]: 130 M⁻¹ s⁻¹
- FXa kcat/KM [29]: 940 M⁻¹ s⁻¹
- FXa kcat/KM [30]: 500 M⁻¹ s⁻¹
- FXa kcat/KM [31]: 430 M⁻¹ s⁻¹
- FXa kcat/KM [32]: 570 M⁻¹ s⁻¹
- FXa kcat/KM [33]: 38 M⁻¹ s⁻¹
- FXa kcat/KM [34]: 2000 M⁻¹ s⁻¹
- FXa kcat/KM [35]: 24 M⁻¹ s⁻¹
- FXa kcat/KM [36]: 13 M⁻¹ s⁻¹
- FXa kcat/KM [37]: 37 M⁻¹ s⁻¹
- FXa kcat/KM [38]: 22 M⁻¹ s⁻¹
- FXa kcat/KM [39]: 49 M⁻¹ s⁻¹
- FXa kcat/KM [40]: 41 M⁻¹ s⁻¹
- FXa kcat/KM [41]: 50 M⁻¹ s⁻¹
